Data on three molecules can be found in patent publication US20160097044A1, “Antimicrobial Enzyme Fusions Reduce Resistance and Kill Intracellular Staphylococcus aureus” (The United States of America, as Represented by the …, priority 2014, published 2016).

For series [1], the system named is S. aureus Newbould 305. Kind of series: Turbidity reduction assay. The format is cell-based. The note with it: 1 μM enzyme, cells at OD600nm 1.0, FIG. 6a. The procedure:
(§1) FIG. 6a depicts the specific activity of peptidoglycan hydrolase fusion constructs in vitro in a turbidity reduction assay with S. aureus Newbould 305 resuspended in lysis buffer to an OD600nm of 1.0 and treated with 1 μM final concentrations of each peptidoglycan hydrolase. The maximum specific activity for three experiments are represented as an average with SEM error bars. FIG. 6b depicts the bacterial burden in mice with mastitis treated with recombinant peptidoglycan hydrolases. Colony Forming Units (CFUs) from infected murine mammary glands following a single treatment with 50 μl of 25 μM peptidoglycan hydrolase (1.25 nmol). Each data point represents the average of duplicate bacterial platings. The horizontal bars represent the average CFU/mg for each group. FIG. 6c illustrates the TNFα response in mice with mastitis that were treated with peptidoglycan hydrolases. Data represents a minimum of 7 measurements in duplicate. Log TNFα was used for statistical analysis. Single asterisks indicate a significant difference from buffer control (p<0.05); double asterisks indicate a significant difference from the parental enzyme (p<0.05).
FIG. 7 depicts a turbidity reduction assay of select peptidoglycan hydrolases against S. aureus Newbould 305. Bacterial cells were resuspended in lysis buffer to an OD600nm of 1.0 and lysed with 1 μM final concentrations of each peptidoglycan hydrolase. The maximum rate of ΔOD of three experiments are represented as an average with error bars representing SEM. Double asterisks indicate significant difference from parental. Mean comparisons were performed with one way ANOVA (P=3.3×10^−5) with t test post hoc analysis with Sidák adjusted alpha (p<0.01).

Series [2] relates to TNFα. Kind of series: Murine model of mastitis, TNFα response. The series is classed as in vivo, C57BL6/SJL mice. As to conditions: single 1.25 nmoles intramammary infusion, after challenge. The procedure: as §1, with “(p<0.05). […]” for “(p<0.05).”
Statistical analysis: The variables were analyzed as two-factor mixed models with Treatment as the factor and Mouse as random Blocks. […]

Series [3] has as its system post-treatment isolates of S. aureus ALR. Kind of series: Resistance of isolates recovered from nares of treated rats (plate lysis, MIC). The format is cell-based. The procedure: The Minimum Inhibitory Concentrations (MIC) of each protein for multiple S. aureus strains was determined as previously described (Jones et al. 1985. In: Manual of Clinical Microbiology, Eds. Balows et al. American Society of Microbiology, Washington D.C., pp. 972-977) with the following modifications. Enzymes were serially diluted two fold across a 96 well plate, such that after dilution, 50 μl of the enzyme solution in 300 mM NaCl, 50 mM NaH2PO4, 30% glycerol pH 7.5, remained in each well. To each well was added 50 μl of TSB and 100 μl of S. aureus Newman in TSB (diluted to 5×10^6 cells/ml). The plates were incubated 20 h at 37° C. and read with a 96 well plate reader. MIC determination values were reported as the median of ≧4 replicates (Table 1).

Entries after “also recorded” stand apart in the source; their conditions may differ. Where only a bound is given, the exact number is not on record here.

Consider “K-L: both LysK lytic domains fused to the N-terminus of lysostaphin; SEQ ID NO:5, protein SEQ ID NO:6”, for which, in series [1], the “turbidity reduction (in vitro lytic) activity” value is given as “slightly more effective at lysing S. aureus strain Newbould 305 than lysostaphin”.
Regarding “L: 247 amino acid mature (secreted) lysostaphin, staphylolytic bacteriocin, C-terminal His6 tag; SEQ ID NO:1 [reference compound]”, the “reduction of TNFα concentration in the mammary tissue” value in series [2] was > 6 fold.

B1: L-K: LysK lytic domains inserted between lysostaphin's M23 endopeptidase domain and SH3b cell wall binding domain; SEQ ID NO:7, protein SEQ ID NO:8 (protein)
chain: MAATHEHSAQWLNNYKKGYGYGPYPLGINGGMHYGVDFFMNIGTPVKAISSGKIVEAGWSNYGGGNQIGLIENDGVHRQWYMHLSKYNVKVGDYVKAGQIIGWSGSTGYSTAPHLHFQRMVNSFSNSTAQDPMPFLKSAGYGKAGGTVTPTPNTGLDAKTQAEINKRLDAYAKGTVDSPYRVKKATSYDPSFGVMEAGAIDADGYYHAQCQDLITDYVLWLTDNKVRTWGNAKDQIKQSYGTGFKIHENKPSTVPKKGWIAVFTSGSYEQWGHIGIVYDGGNTSTFTILEQNWNGYANKKPTKRVDNYYGLTHFIEIPVKAGTTVKKETAKKSASKTPAPKKKATLKVSKNHINYTMDKRGKKPEGMVIHNDAGRSSGQQYENSLANAGYARYANGIAHYYGSEGYVWEAIDAKNQIAWHTGDGTGANSGNFRFAGIEVCQSMSASDAQFLKNEQAVFQFTAEKFKEWGLTPNRKTVRLHMEFVPTACPHRSMVLHTGFNPVTQGRPSQAIMNKLKDYFIKQIKNYMDKGTSSSTVVKDGKTSSASLDTVTPTPNTGWKTNKYGTLYKSESASFTPNTDIITRTTGPFRSMPQSGVLKAGQTIHYDEVMKQDGHVWVGYTGNSGQRIYLPVRTWNKSTNTLGVLWGTIKLEHHHHHH
modifications: Staphylococcus simulans & Phage K
For the molecule B1, in series [3] (isolates from rats treated with triple fusion L-K, N=32), the “MIC of 8 post-treatment isolates” value worked out at 7.0 ± 2.4 µg/mL. Besides, in series [3] (plate lysis analysis, N=22 colonies), the “resistance of colonies recovered from nares of treated rats” value is reported as “not more resistant than the parental strain; also recorded: no in vivo resistance development detected”.
